According to article PMC11173052, “The Development of Robust Antibodies to Sarcospan, a Dystrophin- and Integrin-Associated Protein, for Basic and Translational Research” (International Journal of Molecular Sciences, 2024):

B1: human sarcospan (hSSPN) (natural protein, UniProt Q14714 1-243, looked up)
chain: MGKNKQPRGQQRQGGPPAADAAGPDDMEPKKGTGAPKECGEEEPRTCCGCRFPLLLALLQLALGIAVTVVGFLMASISSSLLVRDTPFWAGIIVCLVAYLGLFMLCVSYQVDERTCIQFSMKLLYFLLSALGLTVCVLAVAFAAHHYSQLTQFTCETTLDSCQCKLPSSEPLSRTFVYRDVTDCTSVTGTFKLFLLIQMILNLVCGLVCLLACFVMWKHRYQVFYVGVRICSLTASEGPQQKI
notes: sarcospan, human, GenBank AF016028; hSSPN-TG muscle also holds endogenous mouse SSPN; also called human SSPN; source: transgenic overexpression in mouse skeletal muscle (hSSPN-TG, Ln3), quadriceps muscle lysate
B2: mouse sarcospan (mSSPN) (natural protein, UniProt Q62147 1-216, looked up)
chain: MGRKPSPRAQELPEEEARTCCGCRFPLLLALLQLALGIAVTVLGFLMASISPSLLVRDTPFWAGSIVCVVAYLGLFMLCVSYQVDERTCVQFSMKVFYFLLSALGLMVCMLAVAFAAHHYSLLAQFTCETSLDSCQCKLPSSEPLSRAFVYRDVTDCTSVTGTFKLFLIIQMVLNLVCGLVCLLACFVMWKHRYQVFYVGVGLRSLMASDGQLPKA
notes: sarcospan, mouse, GenBank U02487; 25-kDa protein with four transmembrane domains; seen as monomer and as a dimer band on reducing SDS-PAGE of immunoprecipitates; also called mouse SSPN; murine SSPN; source: endogenous (wild type) or transgenic overexpression (mSSPN-TG, Ln28), mouse quadriceps muscle lysate

Target: the molecule itself
Test: oligomer bands on immunoblot of immunoprecipitated protein (reducing SDS-PAGE); quadriceps lysates (50 mM Tris, 150 mM NaCl, 1% NP-40, pH 7.4) of hSSPN-TG, mSSPN-TG, WT and SSPN-null mice immunoprecipitated with anti-SSPN monoclonal antibodies on protein A/G PLUS-agarose; eluates resolved by SDS-PAGE under reducing conditions and blotted with E2 or 10B8

| Protein | stoichiometry N |
| --- | --- |
| B1 | 2 |
| B2 | 2 |
